The supplement of paper PMC10724198
± gives the standard deviation of the averaged measurements.

Key:
Saccharomyces cerevisiae [1] = test: protein stability index of tFT-peptide fusion in wild type (PSI (0-1 scale)); higher = more stable (slower turnover); conditions: genetic background: wild type
Description: (§1)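 MPS profiling in S. cerevisiae of two library types built from selected 12-aa C-degron peptides (IN1, IN2, LN1, LN3, VN2, R1-R5, W1-W3, Atg1 and Rpa12 C-termini): saturation mutagenesis libraries and C-terminal +1 capping libraries (13 aa). Each peptide is fused to the C-terminus of a sfGFP-mCherry timer, after a GGGS linker. Cells are FACS-sorted into 8 mCherry/sfGFP bins and sequenced. PSI runs from 0 (unstable) to 1 (stable), measured once in wild type and in the das1Δ or doa10Δ background.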

Saccharomyces cerevisiae [2] = test: protein stability index of tFT-peptide fusion in deletion strain of DAS1 (PSI (0-1 scale)); higher = more stable (slower turnover)
Description: as §1

Saccharomyces cerevisiae [3] = test: protein stability index of tFT-peptide fusion (C-terminal peptide) (PSI (0-1 scale)); higher = more stable (slower turnover); conditions: temperature: 30 C
Description: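 MPS profiling in S. cerevisiae of the yeast C-terminome library: the last 12 aa of each annotated ORF are fused to the C-terminus of a sfGFP-mCherry timer, after a GGGS linker. Cells are FACS-sorted into 8 mCherry/sfGFP bins and deep-sequenced. PSI runs from 0 (unstable) to 1 (stable); wild type and das1Δ backgrounds, two technical replicates each.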

[4] = genetic background: das1 deletion
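For protein stability index of tFT-peptide fusion in deletion strain of DAS1 in this document: PSI is a weighted mean of each variant's read distribution over the sorted stability bins, computed only for variants having over 10 reads in total.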
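For protein stability index of tFT-peptide fusion in wild type in this document: PSI derived as read-weighted mean over the 8 sorting bins, only variants exceeding 10 total reads kept, mCherry placed adjacent to the peptide and sfGFP distal.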

## ADKRNHLIKLLN
Saccharomyces cerevisiae [1]
  protein stability index: 0.129
Saccharomyces cerevisiae [2]
  protein stability index: 0.587

## AKILRQKMNHQN
Saccharomyces cerevisiae [1]
  protein stability index: 0.185
Saccharomyces cerevisiae [2]
  protein stability index: 0.688

## TYYRRRATANSL [YMR155W C-terminal 12 aa]
Saccharomyces cerevisiae [3]; [4]
  protein stability index: 0.6958 ± 0.0045
Saccharomyces cerevisiae [3]; genetic background: wild type
  protein stability index: 0.676 ± 0.011

## VACCGCNMTVAY [YIL058W C-terminal 12 aa]
Saccharomyces cerevisiae [3]; [4]
  protein stability index: 0.528 ± 0.015
Saccharomyces cerevisiae [3]; genetic background: wild type
  protein stability index: 0.533 ± 0.029

## VANTTNMNMNLM [DIA1 C-terminal 12 aa]
Saccharomyces cerevisiae [3]; [4]
  protein stability index: 0.6954 ± 0.0035
Saccharomyces cerevisiae [3]; genetic background: wild type
  protein stability index: 0.737 ± 0.027

## VDKYEAGMSITK [SWC4 C-terminal 12 aa]
Saccharomyces cerevisiae [3]; [4]
  protein stability index: 0.688 ± 0.0058
Saccharomyces cerevisiae [3]; genetic background: wild type
  protein stability index: 0.671 ± 0.03

## VFEISNKELFLT [YIL029W-A C-terminal 12 aa]
Saccharomyces cerevisiae [3]; [4]
  protein stability index: 0.6922 ± 0.0023
Saccharomyces cerevisiae [3]; genetic background: wild type
  protein stability index: 0.452 ± 0.016

## VFLKKDTDIYIC [YML084W C-terminal 12 aa]
Saccharomyces cerevisiae [3]; [4]
  protein stability index: 0.63 ± 0.019
Saccharomyces cerevisiae [3]; genetic background: wild type
  protein stability index: 0.612 ± 0.03

## VFRIVARGYVGW [BBC1 C-terminal 12 aa]
Saccharomyces cerevisiae [3]; [4]
  protein stability index: 0.701 ± 0.04
Saccharomyces cerevisiae [3]; genetic background: wild type
  protein stability index: 0.691 ± 0.046

## VFVTGILSTVYI [AIT1 C-terminal 12 aa]
Saccharomyces cerevisiae [3]; [4]
  protein stability index: 0.6444 ± 0.0011
Saccharomyces cerevisiae [3]; genetic background: wild type
  protein stability index: 0.6108 ± 0.0049

## VGELDIKFDLKF [RTF1 C-terminal 12 aa]
Saccharomyces cerevisiae [3]; [4]
  protein stability index: 0.733 ± 0.018
Saccharomyces cerevisiae [3]; genetic background: wild type
  protein stability index: 0.696 ± 0.0088

## VGLDDLKKLVTK [PCF11 C-terminal 12 aa]
Saccharomyces cerevisiae [3]; [4]
  protein stability index: 0.713 ± 0.03
Saccharomyces cerevisiae [3]; genetic background: wild type
  protein stability index: 0.744 ± 0.099

## VIAQIDELFEGY [THG1 C-terminal 12 aa]
Saccharomyces cerevisiae [3]; [4]
  protein stability index: 0.726 ± 0.0083
Saccharomyces cerevisiae [3]; genetic background: wild type
  protein stability index: 0.711 ± 0.019

## VIFLFLRTIHFL [PGC1 C-terminal 12 aa]
Saccharomyces cerevisiae [3]; [4]
  protein stability index: 0.501 ± 0.015
Saccharomyces cerevisiae [3]; genetic background: wild type
  protein stability index: 0.142 ± 0.0083

## VIGEKGITDSSD [DMC1 C-terminal 12 aa]
Saccharomyces cerevisiae [3]; [4]
  protein stability index: 0.733 ± 0.023
Saccharomyces cerevisiae [3]; genetic background: wild type
  protein stability index: 0.721 ± 0.018

## VIWDNNTKFCWF [YGR111W C-terminal 12 aa]
Saccharomyces cerevisiae [3]; [4]
  protein stability index: 0.742 ± 0.0097
Saccharomyces cerevisiae [3]; genetic background: wild type
  protein stability index: 0.73063 ± 0.00022

## VIWEKVYESKTK [LSM8 C-terminal 12 aa]
Saccharomyces cerevisiae [3]; [4]
  protein stability index: 0.724 ± 0.018
Saccharomyces cerevisiae [3]; genetic background: wild type
  protein stability index: 0.761 ± 0.057

## VIWQERETTANK [EMI1 C-terminal 12 aa]
Saccharomyces cerevisiae [3]; [4]
  protein stability index: 0.724 ± 0.033
Saccharomyces cerevisiae [3]; genetic background: wild type
  protein stability index: 0.676 ± 0.038

## VKHKVVSVDEDN [MPM1 C-terminal 12 aa]
Saccharomyces cerevisiae [3]; [4]
  protein stability index: 0.681 ± 0.014
Saccharomyces cerevisiae [3]; genetic background: wild type
  protein stability index: 0.6529 ± 0.001

## VKKEPLNEESKP [MIA40 C-terminal 12 aa]
Saccharomyces cerevisiae [3]; [4]
  protein stability index: 0.7041 ± 0.0021
Saccharomyces cerevisiae [3]; genetic background: wild type
  protein stability index: 0.679 ± 0.026

## VKNSPRLLLFFI [YOL160W C-terminal 12 aa]
Saccharomyces cerevisiae [3]; [4]
  protein stability index: 0.673 ± 0.041
Saccharomyces cerevisiae [3]; genetic background: wild type
  protein stability index: 0.53 ± 0.011

## VKSNPQPAYTFQ [YFR012W-A C-terminal 12 aa]
Saccharomyces cerevisiae [3]; [4]
  protein stability index: 0.679 ± 0.02
Saccharomyces cerevisiae [3]; genetic background: wild type
  protein stability index: 0.6969 ± 2.8e-05

## VLDDAEETKESH [ATP14 C-terminal 12 aa]
Saccharomyces cerevisiae [3]; [4]
  protein stability index: 0.689 ± 0.024
Saccharomyces cerevisiae [3]; genetic background: wild type
  protein stability index: 0.67 ± 0.023

## VLERVSRGAGSH [COF1 C-terminal 12 aa]
Saccharomyces cerevisiae [3]; [4]
  protein stability index: 0.7039 ± 0.0025
Saccharomyces cerevisiae [3]; genetic background: wild type
  protein stability index: 0.688 ± 0.036

## VLLTAYKKLLTK [KEG1 C-terminal 12 aa]
Saccharomyces cerevisiae [3]; [4]
  protein stability index: 0.685 ± 0.021
Saccharomyces cerevisiae [3]; genetic background: wild type
  protein stability index: 0.62079 ± 0.00024

## VLMKQLDEIIRK [BUD14 C-terminal 12 aa]
Saccharomyces cerevisiae [3]; [4]
  protein stability index: 0.6982 ± 0.0046
Saccharomyces cerevisiae [3]; genetic background: wild type
  protein stability index: 0.704 ± 0.058

## VLPTWADKVINE [SPE4 C-terminal 12 aa]
Saccharomyces cerevisiae [3]; [4]
  protein stability index: 0.69 ± 0.0095
Saccharomyces cerevisiae [3]; genetic background: wild type
  protein stability index: 0.677 ± 0.012

## VMDDIISELTNE [KRE28 C-terminal 12 aa]
Saccharomyces cerevisiae [3]; [4]
  protein stability index: 0.713 ± 0.019
Saccharomyces cerevisiae [3]; genetic background: wild type
  protein stability index: 0.687 ± 0.046

## VNQKQPPPQSYV [YEL067C C-terminal 12 aa]
Saccharomyces cerevisiae [3]; [4]
  protein stability index: 0.7165 ± 0.00072
Saccharomyces cerevisiae [3]; genetic background: wild type
  protein stability index: 0.7048 ± 0.00045

## VPLESTKRQPLH [YBR053C C-terminal 12 aa]
Saccharomyces cerevisiae [3]; [4]
  protein stability index: 0.719 ± 0.0097
Saccharomyces cerevisiae [3]; genetic background: wild type
  protein stability index: 0.704 ± 0.026

## VPPRSASASSQR [SPC97 C-terminal 12 aa]
Saccharomyces cerevisiae [3]; [4]
  protein stability index: 0.689 ± 0.018
Saccharomyces cerevisiae [3]; genetic background: wild type
  protein stability index: 0.684 ± 0.015

## VPQEDDRLHKLK [AIM3 C-terminal 12 aa]
Saccharomyces cerevisiae [3]; [4]
  protein stability index: 0.701 ± 0.016
Saccharomyces cerevisiae [3]; genetic background: wild type
  protein stability index: 0.765 ± 0.039

## VQLIDGPEEMHR [SHO1 C-terminal 12 aa]
Saccharomyces cerevisiae [3]; [4]
  protein stability index: 0.726 ± 0.009
Saccharomyces cerevisiae [3]; genetic background: wild type
  protein stability index: 0.663 ± 0.008

## VQWSRPRRGDVL [LAM6 C-terminal 12 aa]
Saccharomyces cerevisiae [3]; [4]
  protein stability index: 0.7079 ± 0.0014
Saccharomyces cerevisiae [3]; genetic background: wild type
  protein stability index: 0.703 ± 0.051

## VRGRKSRNTSRV [REP2 C-terminal 12 aa]
Saccharomyces cerevisiae [3]; [4]
  protein stability index: 0.711 ± 0.013
Saccharomyces cerevisiae [3]; genetic background: wild type
  protein stability index: 0.755 ± 0.035

## VSDAMFDQGDVF [GDH1 C-terminal 12 aa]
Saccharomyces cerevisiae [3]; [4]
  protein stability index: 0.72756 ± 0.0006
Saccharomyces cerevisiae [3]; genetic background: wild type
  protein stability index: 0.707 ± 0.012

## VSKLNGFSFTDI [ASE1 C-terminal 12 aa]
Saccharomyces cerevisiae [3]; [4]
  protein stability index: 0.669 ± 0.0088
Saccharomyces cerevisiae [3]; genetic background: wild type
  protein stability index: 0.674 ± 0.016

## VSYFSIFSLFFF [YKL096C-B C-terminal 12 aa]
Saccharomyces cerevisiae [3]; [4]
  protein stability index: 0.667 ± 0.047
Saccharomyces cerevisiae [3]; genetic background: wild type
  protein stability index: 0.603 ± 0.016

## VVDLIMEYLQDT [YDL057W C-terminal 12 aa]
Saccharomyces cerevisiae [3]; [4]
  protein stability index: 0.699 ± 0.013
Saccharomyces cerevisiae [3]; genetic background: wild type
  protein stability index: 0.741 ± 0.078
